Results: patent publication US20200299342A1

Experiments:
[1] = molecular target: Skp1tr-F-box^Fbw7 complex (human) (UniProt P63208); assay: SPR, complex immobilised, Cul1 NTD injected
[2] = molecular target: Skp1tr-F-box^Fbw7 complex (human) (UniProt P63208); assay: SPR
Target sequence in this assay (P63208 other isoform, or with tags, fused parts or gaps, chain 1 of 2): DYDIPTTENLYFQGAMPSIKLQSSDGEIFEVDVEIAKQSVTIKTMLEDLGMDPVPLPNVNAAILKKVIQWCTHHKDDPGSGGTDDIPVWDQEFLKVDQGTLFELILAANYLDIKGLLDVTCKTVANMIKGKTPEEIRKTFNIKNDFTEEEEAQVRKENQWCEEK
Target sequence in this assay (Q969H0 other isoform, or with tags, fused parts or gaps, chain 2 of 2, further chain): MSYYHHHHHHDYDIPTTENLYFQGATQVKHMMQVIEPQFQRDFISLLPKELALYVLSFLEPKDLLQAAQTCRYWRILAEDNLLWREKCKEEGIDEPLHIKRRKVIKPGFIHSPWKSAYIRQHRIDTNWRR

[3] = molecular target: Skp1tr-F-box^Fbw7 complex (human) (UniProt P63208); assay: ELISA
Target sequence in this assay (P63208 other isoform, or with tags, fused parts or gaps, chain 1 of 2): as the sequence (P63208 other isoform, or with tags, fused parts or gaps, chain 1 of 2) above
Target sequence in this assay (Q969H0 other isoform, or with tags, fused parts or gaps, chain 2 of 2, further chain): as the sequence (Q969H0 other isoform, or with tags, fused parts or gaps, chain 2 of 2, further chain) above

- fold weaker than with Skp1-F-box^Fbw7 [1]: 1000 fold
- Kd [2]: 3.6 nM
- EC50 [3]: 11 nM
Substance: Cul1 N-terminal domain (NTD) (from UniProt Q13616 1-410)
